The record followed here is patent US20090155236A1, “Peptide sequence for modulation of delta protein kinase c” (NATIONAL INSTITUES OF HEALTH (NIH), U.S. DEPT OF HEALTH AND …, priority 2004, published 2009).

For data set [1], the target named is T1, epsilon PKC (Rattus norvegicus, UniProt P09216).
T1 sequence (P09216 1-737): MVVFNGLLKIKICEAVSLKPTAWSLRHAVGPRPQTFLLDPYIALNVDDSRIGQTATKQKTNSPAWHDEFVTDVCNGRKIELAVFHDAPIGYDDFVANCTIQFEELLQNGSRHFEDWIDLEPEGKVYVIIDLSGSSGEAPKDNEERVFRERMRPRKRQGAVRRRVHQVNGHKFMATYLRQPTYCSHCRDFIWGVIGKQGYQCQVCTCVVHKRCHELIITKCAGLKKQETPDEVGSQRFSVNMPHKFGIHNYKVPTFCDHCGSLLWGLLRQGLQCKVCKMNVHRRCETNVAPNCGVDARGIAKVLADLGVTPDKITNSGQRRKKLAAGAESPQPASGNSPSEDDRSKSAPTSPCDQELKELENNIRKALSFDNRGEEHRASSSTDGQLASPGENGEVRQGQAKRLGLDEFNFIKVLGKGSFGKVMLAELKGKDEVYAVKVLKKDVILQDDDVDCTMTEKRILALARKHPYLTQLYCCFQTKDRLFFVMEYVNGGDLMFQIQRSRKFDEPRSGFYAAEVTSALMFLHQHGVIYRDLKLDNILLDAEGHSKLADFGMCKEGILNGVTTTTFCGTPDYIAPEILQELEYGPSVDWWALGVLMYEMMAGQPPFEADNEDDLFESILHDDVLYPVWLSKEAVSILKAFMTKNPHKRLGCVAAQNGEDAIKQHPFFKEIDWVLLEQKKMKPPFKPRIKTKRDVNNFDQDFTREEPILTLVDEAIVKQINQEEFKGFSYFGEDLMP
Put plainly: Overlay assay, immobilized annexin V with epsilon PKC. It counts as binding. Conditions: FIG. 1. From the text: (§1) Initial studies were designed to evaluate binding of annexin V to delta PKC, to certain regions of delta PKC (V1 and V5 regions), and to epsilon PKC. In a study detailed in Example 1, an overlay assay using immobilized annexin V (SEQ ID NO:2) and recombinant full-length delta PKC (SEQ ID NO:3), purified full-length epsilon PKC (SEQ ID NO:6), the recombinant V1 region of delta PKC (“V1 delta PKC”, SEQ ID NO:4), and the recombinant V5 region of delta PKC (“V5 delta PKC”, SEQ ID NO:5) was done. The V1 delta PKC peptide conjugated to […] to form a fusion protein, and the V5 delta PKC peptide was conjugated to glutathione-S-transferase to form a fusion protein.
10 μg of annexin V (SEQ ID NO:2) was separated on 12% SDS-PAGE gel and transferred to nitrocellulose, and then cut into strips. The strips were incubated with blocking buffer (50 mM Tris pH 7.5, 200 mM NaCl, 3% bovine serum albumin, 0.1% PEG20). The strips were then incubated in overlay buffer (50 mM Tris pH 7.5, 200 mM NaCl, 1% PEG20, 12 mM β-mercaptoethanol) in the presence where appropriate of 30 μg crude bacterial cell lysate containing fusion proteins of […] V1 PKC (MBP-δV1), glutathione-S-transferase-delta V5 PKC (GST-δV5), and full length sequences of delta (δPKC, SEQ ID NO:3) or rat purified epsilon (εPKC, SEQ ID NO:6) at 37° C. for 30 min. […]

In the next data set the target is T2, delta V1 PKC (Rattus norvegicus, UniProt P09215).
T2 construct: MBP (printed as 'myelin basic protein'); made in house
Put plainly: ELISA binding of annexin V protein to delta V1 PKC. As to conditions: FIG. 2. From the text: In another study, binding of annexin V protein to the V1 regions of epsilon PKC (SEQ ID NO:7) and of delta PKC (SEQ ID NO:4) was examined using ELISA, as described in Example 2. […] Binding of annexin V protein (SEQ ID NO:2) to delta V1 PKC in the absence of calcium was about 55%. In the presence of calcium binding was increased to 100%. […] Thus, annexin V protein binds to full-length PCK and to the V1 and V5 domains of delta PKC in vitro in an isozyme specific manner.
(§2) Annexin V (SEQ ID NO:2) was diluted in 100 mM carbonate buffer (pH=9.6) and 100 μl of the diluted solution is placed in each well of a microtiter plate to give 0.1 μg Annexin V per well. The plate was incubated overnight at 4° C. After the overnight incubation, the plate was blocked for 1 hour at room temperature with 200 μL/well of 1% bovine serum albumin (BSA).
The interaction partners, delta PKC (SEQ ID NO:3), delta V1 PKC (SEQ ID NO:4), and delta V5 PKC (SEQ ID NO:5), were diluted in 100 mM HEPES. For the full length delta PKC, approximately 1.5 μg/well (1:20 dilution of cell lysate) was added. For the delta V1 and delta V5 PKC regions, between about 8000-80 ng/well was added, with an intermediate concentration being sufficient. […]
(§3) A developing reagent was added (100 μL/well): 1 PNPP tablet per 5 mL diluted buffer. 2N NaOH was added and the plate was allowed to develop and then read at 405 nm (single wavelength).
(An ELISA detects its analyte on a solid surface through an enzyme-linked reagent.)

The target of data set [2] is T3, delta PKC (Rattus norvegicus, UniProt P09215). Put plainly: ELISA binding of annexin I and annexin V to delta PKC. As to conditions: FIG. 3.
Description: Annexin V binds with higher affinity to delta PKC than does annexin I (SEQ ID NO:9), as was shown in another study presented in FIG. 3. The percent binding of annexin 1 and annexin V to delta PKC (SEQ ID NO:3) in the presence and absence of calcium was investigated using ELISA (Example 2). […] In the presence of calcium the binding increased to 100%. In contrast, annexin I binding to delta PKC was unaffected by the presence of calcium and remained at about 70% both in the absence and presence of calcium.
as §2
Target sequence in this assay (P09215 with tags, fused parts or gaps with the stated changes limits assumed): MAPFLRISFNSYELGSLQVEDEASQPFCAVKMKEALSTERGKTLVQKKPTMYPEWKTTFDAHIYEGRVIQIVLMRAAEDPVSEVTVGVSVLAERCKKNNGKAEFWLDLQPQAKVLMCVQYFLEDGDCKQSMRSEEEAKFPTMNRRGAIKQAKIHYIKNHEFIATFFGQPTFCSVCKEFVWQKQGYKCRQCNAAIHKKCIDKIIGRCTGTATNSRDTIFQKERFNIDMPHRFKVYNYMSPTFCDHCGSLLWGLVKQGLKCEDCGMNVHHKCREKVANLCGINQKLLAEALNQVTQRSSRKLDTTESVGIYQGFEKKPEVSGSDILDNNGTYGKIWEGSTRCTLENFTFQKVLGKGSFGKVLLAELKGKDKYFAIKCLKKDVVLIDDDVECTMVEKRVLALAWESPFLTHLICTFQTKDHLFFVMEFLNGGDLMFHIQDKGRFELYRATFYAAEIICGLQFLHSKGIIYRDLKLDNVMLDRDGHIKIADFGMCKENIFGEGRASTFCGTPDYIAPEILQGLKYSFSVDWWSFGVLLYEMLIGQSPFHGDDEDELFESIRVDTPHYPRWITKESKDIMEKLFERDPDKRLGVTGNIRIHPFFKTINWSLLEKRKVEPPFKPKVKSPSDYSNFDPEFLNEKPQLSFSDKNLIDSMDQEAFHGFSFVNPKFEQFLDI
The interaction partners, delta PKC (SEQ ID NO:3), delta V1 PKC (SEQ ID NO:4), and delta V5 PKC (SEQ ID NO:5), were diluted in 100 mM HEPES. For the full length delta PKC, approximately 1.5 μg/well (1:20 dilution of cell lysate) was added. For the delta V1 and delta V5 PKC regions, between about 8000-80 ng/well was added, with an intermediate concentration being sufficient. Signal to noise increased dramatically at higher concentrations; therefore, 8 μg/well was preferred (this corresponds to 1:40 dilution of cell lysate). 100 μL/well, 1 hour w/shaking. Binding was accelerated at 37° C., however room temperature was also sufficient for binding.
After 1 hour shaking, the plate was washed three times with 100 mM HEPES (200 μL/well×3), with 5 minutes for each wash, with shaking.
Next, a primary antibody in milk (usually 1:1000 dilution) was added, followed by 1 hour at room temperature with shaking. The plate was then washed three times, (200 μL/well×3) with PBS Tween (0.1% Tween), with 5 minutes per wash with shaking.
Then, the secondary antibody diluted in PBS Tween (usually 1:1000) was added, followed by 1 hour at room temperature with shaking. The plate was then washed three times (200 μL/well×3) with PBS Tween, with 5 minutes per wash with shaking.
as §3

In data set [3] the target is T4, delta PKC (Homo sapiens, UniProt Q05655).
T4 construct: purchased Panvera LLC, now Invitrogen Corporation
Put plainly: In vitro kinase assay, histone phosphorylation by delta PKC. In kind it is biochemical. As to conditions: in the presence of PS/DAG, FIG. 4A. On the procedure:
(§4) In another study, the ability of annexin V to increase the catalytic activity of delta PKC in vitro was evaluated. Full-length, recombinant delta PKC (SEQ ID NO:3) and epsilon PKC (SEQ ID NO:6) were separately incubated in the presence of kinase buffer, ATP, or histone, as described in Example 3. Activators of PKC, phosphatidylserine (PS) and diacylglycerol (DAG), were added along with annexin V, JTV-519, a 1,4 benzothiazepine derivative that activates delta PKC (Inagaki, K. et al., Circulation, 101:797 (2000)), or a mixture of annexin V and JTV-519.
(§5) 200 ng of pure delta PKC or epsilon PKC (Panvera LLC, now Invitrogen Corporation, Carlsbad, Calif.) were incubated in 100 μL kinase buffer (20 mM Tris pH 7.4, 50 mM MgCl2, 0.3 μCi/reaction [γ-^32P]ATP (Amersham Biosciences), 9 μM/reaction ATP (Sigma), 30 μg/reaction myelin basic protein or histone A1 (Sigma); 100 μM lipid vesicle mixture (90% phosphatidylserine (PS): 10% diacylglycerol (DAG)), 1 mM CaCl2, 1 μM JTV519, and/or 20 ng of Annexin V/reaction were added, where applicable. The kinase reaction was stopped by the addition of SDS sample buffer, and extent of histone phosphorylation assessed after separation on 15% SDS-PAGE and transfer onto nitrocellulose membrane by autoradiography.

Data set [4] deals with T5, epsilon PKC (Homo sapiens, UniProt Q02156).
T5 construct: purchased Panvera LLC, now Invitrogen Corporation
T5 sequence (Q02156 with tags, fused parts or gaps DEL296-297/G298R): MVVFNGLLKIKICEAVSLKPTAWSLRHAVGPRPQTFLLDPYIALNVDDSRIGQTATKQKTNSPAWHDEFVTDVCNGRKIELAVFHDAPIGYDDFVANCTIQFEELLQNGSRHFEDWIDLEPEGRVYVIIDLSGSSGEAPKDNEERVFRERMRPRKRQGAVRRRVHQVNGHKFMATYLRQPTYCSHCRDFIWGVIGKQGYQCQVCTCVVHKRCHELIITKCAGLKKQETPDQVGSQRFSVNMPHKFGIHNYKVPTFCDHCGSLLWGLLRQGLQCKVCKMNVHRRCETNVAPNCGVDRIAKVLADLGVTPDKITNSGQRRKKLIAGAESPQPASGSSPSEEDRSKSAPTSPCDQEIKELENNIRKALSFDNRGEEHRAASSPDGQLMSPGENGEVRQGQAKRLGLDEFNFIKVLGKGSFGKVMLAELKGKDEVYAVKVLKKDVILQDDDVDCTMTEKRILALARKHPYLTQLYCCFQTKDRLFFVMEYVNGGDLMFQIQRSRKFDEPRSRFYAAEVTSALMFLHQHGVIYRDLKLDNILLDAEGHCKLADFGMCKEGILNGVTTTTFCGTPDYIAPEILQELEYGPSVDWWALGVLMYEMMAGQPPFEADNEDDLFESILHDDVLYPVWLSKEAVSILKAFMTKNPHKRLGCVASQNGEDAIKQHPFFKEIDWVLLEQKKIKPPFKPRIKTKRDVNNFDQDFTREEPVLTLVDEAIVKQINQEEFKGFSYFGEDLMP
Put plainly: In vitro kinase assay, histone phosphorylation by epsilon PKC. It counts as biochemical. Conditions: in the presence of PS/DAG, FIG. 4B. Here is the method: as §4, §5

Data set [5] addresses T3, delta PKC. Put plainly: Overlay assay, immobilized annexin V with delta PKC, delta V1 and delta V5 domains. It counts as binding. Further details: made in house; host or cells: crude bacterial cell lysate (not clear whether this also covers the full-length protein).
Description: as §1
10 μg of annexin V (SEQ ID NO:2) was separated on 12% SDS-PAGE gel and transferred to nitrocellulose, and then cut into strips. The strips were incubated with blocking buffer (50 mM Tris pH 7.5, 200 mM NaCl, 3% bovine serum albumin, 0.1% PEG20). The strips were then incubated in overlay buffer (50 mM Tris pH 7.5, 200 mM NaCl, 1% PEG20, 12 mM β-mercaptoethanol) in the presence where appropriate of 30 μg crude bacterial cell lysate containing fusion proteins of […] V1 PKC (MBP-δV1), glutathione-S-transferase-delta V5 PKC (GST-δV5), and full length sequences of delta (δPKC, SEQ ID NO:3) or rat purified epsilon (εPKC, SEQ ID NO:6) at 37° C. for 30 min. The strips where then washed with wash buffer (50 mM Tris pH 7.5, 200 mM NaCl, 0.1% PEG20, 12 mM O-mercaptoethanol), and then incubated with fixative (0.2% formaldehyde in PBS) and neutralizing solution (0.2M glycine in PBS) at room temperature 20 min each. After washing with buffer, the strips were probed with antibodies according to the overlay protein, and resulting bands visualized using ECL Western blotting.

T2 sequence (P09215 1-160): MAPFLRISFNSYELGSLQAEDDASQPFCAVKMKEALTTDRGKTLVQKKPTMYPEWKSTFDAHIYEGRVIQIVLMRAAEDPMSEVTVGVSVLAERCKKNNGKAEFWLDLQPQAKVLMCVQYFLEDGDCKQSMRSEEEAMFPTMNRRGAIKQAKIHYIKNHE
T4 sequence (Q05655 whole entry): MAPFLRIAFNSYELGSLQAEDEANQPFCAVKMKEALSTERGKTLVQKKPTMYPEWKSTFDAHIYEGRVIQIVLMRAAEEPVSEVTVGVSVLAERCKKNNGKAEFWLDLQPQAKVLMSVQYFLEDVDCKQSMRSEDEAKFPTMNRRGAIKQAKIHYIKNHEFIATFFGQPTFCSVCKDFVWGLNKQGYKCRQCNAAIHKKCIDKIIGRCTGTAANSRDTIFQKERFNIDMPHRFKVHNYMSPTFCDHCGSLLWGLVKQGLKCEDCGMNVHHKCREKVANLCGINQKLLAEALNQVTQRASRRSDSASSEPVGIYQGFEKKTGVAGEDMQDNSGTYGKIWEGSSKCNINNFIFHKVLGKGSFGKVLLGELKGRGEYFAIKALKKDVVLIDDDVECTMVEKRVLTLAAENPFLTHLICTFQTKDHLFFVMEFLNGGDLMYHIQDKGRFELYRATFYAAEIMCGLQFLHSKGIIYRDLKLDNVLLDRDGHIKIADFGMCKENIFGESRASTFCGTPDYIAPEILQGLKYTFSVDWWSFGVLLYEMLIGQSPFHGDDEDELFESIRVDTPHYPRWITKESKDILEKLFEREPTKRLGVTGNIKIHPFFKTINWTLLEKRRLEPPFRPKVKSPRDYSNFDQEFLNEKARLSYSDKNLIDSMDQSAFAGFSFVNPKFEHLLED

B1: annexin V: human annexin V protein (protein, listed as Homo sapiens)
chain: MAQVLRGTVTDFPGFDERADAETLRKAMKGLGTDEESILTLLTSRSNAQRQEISAAFKTLFGRDLLDDLKSELTGKFEKLIVALMKPSRLYDAYELKHALKGAGTNEKVLTEIIASRTPEELRAIKQVYEEEYGSSLEDDVVGDTSGYYQRMLVVLLQANRDPDAGIDEAQVEQDAQALFQAGELKWGTDEEKFITIFGTRSVSHLRKVFDKYMTISGFQIEETIDRETSGNLEQLLLAVVKSIRSIPAYLAETLYYAMKGAGTDDHTLIRVMVSRSEIDLFNIRKEFRKNFATSKMIKGDTSGDYKKALLLLCGEDD
Turning to B1, the “binding of epsilon PKC to annexin V” value in the data set with epsilon PKC [1] was “did not bind”. Besides, the “percent binding to delta V1 PKC” value with delta V1 PKC (absence of calcium) is recorded as “about 55%”; in the data set with delta V1 PKC (presence of calcium), 100%. Further, the “percent binding to delta PKC” value with delta PKC [2] (absence of calcium) is recorded as “about 75%”; with delta PKC [2] (presence of calcium) it was 100%. Also, the “catalytic activity of delta PKC (histone phosphorylation)” value with delta PKC [3] is “increases the catalytic activity of delta PKC”. In addition, the “activity of epsilon PKC (histone phosphorylation)” value with epsilon PKC [4] is recorded as “does not increase the activity of epsilon PKC”. Also, the “binding of V5 domain of delta PKC to annexin V” value with delta PKC [5] (FIG. 1, GST-delta V5 fusion protein) was “bound to annexin V”. Besides, the “binding of V1 domain of delta PKC to annexin V” value with delta PKC [5] (FIG. 1, MBP-delta V1 fusion protein) is “bound to annexin V”. Besides, in the data set with delta PKC [5] (FIG. 1, full-length delta PKC), the “binding of full-length delta PKC to annexin V” value is “bound to annexin V”.

B2: annexin I: human annexin I protein (protein, listed as Homo sapiens)
chain: MAMVSEFLKQAWFIENEEQEYVQTVKSSKGGPGSAVSPYPTFNPSSDVAALHKAIMVKGVDEATIIDILTKRNNAQRQQIKAAYLQETGKPLDETLKKALTGHLEEVVLALLKTPAQFDADELRAAMKGLGTDEDTLIEILASRTNKEIRDINRVYREELKRDLAKDITSDTSGDFRNALLSLAKGDRSEDFGVNEDLADSDARALYEAGERRKGTDVNVFNTILTTRSYPQLRRVFQKYTKYSKHDMNKVLDLELKGDIEKCLTAIVKCATSKPAFFAEKLHQAMKGVGTRHKALIRIMVSRSEIDMNDIKAFYQKMYGISLCQAILDETKGDYEKILVALCGGN
In the case of B2, the “percent binding to delta PKC” value with delta PKC [2] (absence of calcium) and in the data set with delta PKC [2] (presence of calcium) was “about 70%” in each case.
